Reference: publication PMC10878242

Target: mAb-1E7
Assay: SPR; Biacore 8K; mAb-1E7 immobilized on a Protein G chip; PCV2-Cap or Nb61 injected at 30 µL/min, 1.5625 to 25 nM; 10 mM HEPES pH 7.4, 150 mM NaCl, 3 mM EDTA, 0.05% Tween 20

Chain of mAb-1E7 (heavy, as listed by the source, chain 1 of 2): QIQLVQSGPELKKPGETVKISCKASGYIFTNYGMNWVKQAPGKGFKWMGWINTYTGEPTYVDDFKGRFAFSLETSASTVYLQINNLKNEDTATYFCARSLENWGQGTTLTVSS
Chain of mAb-1E7 (light, as listed by the source, chain 2 of 2): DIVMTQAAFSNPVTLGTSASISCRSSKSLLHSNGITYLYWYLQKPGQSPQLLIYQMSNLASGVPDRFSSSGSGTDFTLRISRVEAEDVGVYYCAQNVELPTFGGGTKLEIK

B1: Nb61 (VHH)
VHH: QVQLQESGGGSVQAGGSLRLSCAGSDFPYCSYDMSWYRQAPGKEREFVSGIDRDGTIRYADAVKGRFTISQGDAKNTLYLQMNSLKPEDTAMYYCKTTPRNYNDFLGCVDYWGQGTQVTVSS
Q: With B1 as the binder, how does the Kd read?
A: 12 nM

Q: And the koff?
A: 0.0222 s⁻¹

Q: What about the kon of the same binder?
A: 1.86e+06 M⁻¹ s⁻¹
